This assay addresses human ACE2 extracellular domain (19-615) (human) (UniProt Q9BYF1). The assay is described as follows: SPR.

From paper PMC7952905 come the findings set out here.

Sequence of human ACE2 extracellular domain (19-615) (human) (Q9BYF1 19-615): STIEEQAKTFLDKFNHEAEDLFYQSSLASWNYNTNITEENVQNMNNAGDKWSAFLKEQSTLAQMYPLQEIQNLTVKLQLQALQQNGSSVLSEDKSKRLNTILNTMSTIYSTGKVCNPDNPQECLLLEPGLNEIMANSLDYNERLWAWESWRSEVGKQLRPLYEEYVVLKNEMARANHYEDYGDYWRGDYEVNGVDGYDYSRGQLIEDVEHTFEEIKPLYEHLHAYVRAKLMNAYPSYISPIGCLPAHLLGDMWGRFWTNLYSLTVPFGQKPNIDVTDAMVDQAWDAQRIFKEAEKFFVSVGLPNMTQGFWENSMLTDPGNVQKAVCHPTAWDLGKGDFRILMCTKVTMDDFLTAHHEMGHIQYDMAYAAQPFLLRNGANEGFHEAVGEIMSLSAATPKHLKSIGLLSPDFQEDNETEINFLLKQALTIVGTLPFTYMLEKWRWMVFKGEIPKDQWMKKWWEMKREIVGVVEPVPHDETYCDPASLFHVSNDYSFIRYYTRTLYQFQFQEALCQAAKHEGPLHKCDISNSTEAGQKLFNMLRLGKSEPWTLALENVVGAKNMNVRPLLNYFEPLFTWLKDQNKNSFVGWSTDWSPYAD

What is called Kd is the equilibrium constant for the complex coming apart. Low values mean a tighter complex, high ones a looser complex. In turn, “PCoV_GX RBD (331-524) (domain or fragment)” yielded a Kd of 2.7 nM.
